Our source for the KD1 (heterogeneous ligand model, fast site of weak affinity), KD2 (heterogeneous ligand model, slow site of strong affinity) and Kd values is article PMC11338637.

By Kd is commonly meant the concentration at which binding is half-saturated. Read a high Kd as lower affinity.

In series [1] the target is Hir complex (Hir1/Hir2/Hir3/Hpc2) (S. cerevisiae) (UniProt P32479). Put plainly: SPR. (SPR reads the build-up and loss of mass on a sensor chip optically.)
Series [2] has as its target ctHir3 (Chaetomium thermophilum, UniProt G0S723 1-2235). Put plainly: fluorescence polarization.

“yeastAsf1/humanH3.3/humanH4 (from UniProt P32447 1-279; P84243 1-136; P62805 1-103) (complex)”: in series [1], the KD1 (heterogeneous ligand model, fast site of weak affinity) is 196 nM and the KD2 (heterogeneous ligand model, slow site of strong affinity) was 18 nM.
AAAACAAAUAUGCAUAUUAUCGAGAGG (ssRNA) [ssRNA probe] gave a dissociation constant (Kd) in series [2] of 292 nM.
Still for that read-out and setting: with TAGGGAGTAATCCCCTTGGCGG (ssDNA) [ssDNA probe] the figure was 531 nM.
